Consider two molecules from patent US20190071505A1 (UNIVERSITY OF NORTH TEXAS HEALTH SCIENCE CENTER, published 2019).

B1: Lectin-like transcript 1 (LLT1) (ligand)
chain: MHDSNNVEKDITPSELPANPGCLHSKEHSIKATLIWRLFFLIMFLTIIVCGMVAALSAIRANCHQEPSVCLQAACPESWIGFQRKCFYFSDDTKNWTSSQRFCDSQDADLAQVESFQELNFLLRYKGPSDHWIGLSREQGQPWKWINGTEWTRQFPILGAGECAYLNDKGASSARHYTERKWICSKSDIHV
B2: mouse anti-human LLT1 mAb (clone #2E5) (antibody, V domains shown)
VH: EVQLQQSGADLVKPGASVKLSCTASGFNIKDTYMHWVIQRPEQGLDWIGRIDPANGNTNYDPKFRAKATITADTSSNTAYLQLSSLTSDDTAVYYCAGMDYHFDFWGQGTTLTVSS
VL: DIVMTQSPATLSVTPGDRVSLSCRASQSISDYLHWYQQKSHESPRLLIKYASQSISGIPSRFSGSGSGSDFTLSINSVEPEDVGVFYCQNGHSFPLTFGAGTKLELRR
notes: Mouse monoclonal antibody from hybridoma 2E5; It was detected with a PE-conjugated goat anti-mouse IgG secondary antibody; also called 2E5 mAb

Experiment [1] has as its target T1, NK cell inhibitory receptor NKRP1A (CD161) (human, UniProt Q12918 1-225).
T1 sequence (looked up): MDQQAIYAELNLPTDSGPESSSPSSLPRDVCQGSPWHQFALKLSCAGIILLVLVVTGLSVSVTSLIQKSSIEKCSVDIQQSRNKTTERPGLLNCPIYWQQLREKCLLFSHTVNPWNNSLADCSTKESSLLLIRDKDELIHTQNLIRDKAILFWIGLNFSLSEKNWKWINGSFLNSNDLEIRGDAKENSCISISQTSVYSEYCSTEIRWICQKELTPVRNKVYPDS
The experiment in a line: cell-based or functional assay.

Experiment [2] deals with B1. The experiment in a line: flow cytometry on DU145 cells (endogenous LLT1), PE goat anti-mouse IgG secondary, ratio to mIgG1 isotype control; clone taken from the FIG. 2 legend. (In general: Flow cytometry measures light scatter and fluorescence of single cells or particles in a stream.)
The target of experiment [3] is B1. As to the kind of experiment: flow cytometry on 22Rv1 cells (endogenous LLT1), PE goat anti-mouse IgG secondary, ratio to mIgG1 isotype control; clone taken from the FIG. 2 legend.

B1: in experiment [1], the “percent of MDA-MB-436 LLT1 siRNA-transfected cells killed by NK cells, 5:1 E:T ratio (51Cr release)” value was 21.8%; the “percent of MDA-MB-436 LLT1 siRNA-transfected cells killed by NK cells, 25:1 E:T ratio (51Cr release)” value worked out at 63.4%; the “percent of MDA-MB-436 scramble siRNA-transfected cells killed by NK cells, 5:1 E:T ratio (51Cr release)” value was 18.9%; the “percent of MDA-MB-436 scramble siRNA-transfected cells killed by NK cells, 25:1 E:T ratio (51Cr release)” value came out at 42.2%.
As to B2, the “MFIR (mean fluorescence intensity ratio)” value turned out to be 12 in experiment [2] and 14.4 in experiment [3].
